Substitutions are numbered along the chain they refer to.
B1: humanized anti-TrkA monoclonal antibody H3L1-IgG4 (antibody, V domains shown)
VH: EVQLLESGGGLVQPGGSLKLSCKASGYAFTNYWLGWMKQRPGHGLEWIGDFYPRTGNTFYNENFKGQVTMSVDKSITTAYLQWNSLKASDTAMYYCARAGTGFDYWGQGTTLTVSS
VL: EIVMTQSPATLSLSVGERVTLSCKASENVGGYVSWYQQKPDQSPKLLIYGASSRHTGVPDRFTGSGSETDFTLTISSVQAEDLAAYHCGQNYIYPFTFGGGTKLEIKR
B2: humanized anti-TrkA monoclonal antibody H3L2-IgG4 (antibody, V domains shown)
VH: B1 VH
VL: B1 VL with H55A
B3: humanized anti-TrkA monoclonal antibody H1L1-IgG4 (antibody)
heavy: EVQLLESGGGLVQPGGSLKLSCKASGYAFTNYWLGWMKQRPGHGLEWIGDFYPRTGNTFYNENFKGKVTLTADKSSNTAYMQLSSLTSEDSAVYLCARAGTGFDYWGQGTTLTVSSASTKGPSVFPLAPCSRSTSESTAALGCLVKDYFPEPVTVSWNSGALTSGVHTFPAVLQSSGLYSLSSVVTVPSSSLGTKTYTCNVDHKPSNTKVDKRVESKYGPPCPPCPAPEAAGGPSVFLFPPKPKDTLMISRTPEVTCVVVDVSQEDPEVQFNWYVDGVEVHNAKTKPREEQFNSTYRVVSVLTVLHQDWLNGKEYKCKVSNKGLPSSIEKTISKAKGQPREPQVYTLPPSQEEMTKNQVSLTCLVKGFYPSDIAVEWESNGQPENNYKTTPPVLDSDGSFFLYSKLTVDKSRWQEGNVFSCSVMHEALHNHYTQKSLSLSLG
light: EIVMTQSPATLSLSVGERVTLSCKASENVGGYVSWYQQKPDQSPKLLIYGASSRHTGVPDRFTGSGSETDFTLTISSVQAEDLAAYHCGQNYIYPFTFGGGTKLEIKRTVAAPSVFIFPPSDEQLKSGTASVVCLLNNFYPREAKVQWKVDNALQSGNSQESVTEQDSKDSTYSLSSTLTLSKADYEKHKVYACEVTHQGLSSPVTKSFNRGEC
B4: human-mouse chimeric anti-TrkA monoclonal antibody 23E12 (H0L0-IgG4) (antibody)
heavy: B3 heavy with E1Q, L5Q, E6Q, G9A, G10E, Q13R, G16T, L18V, L20I
light: B3 light with E1S, A9K, T10S, L11M, L13M

Biological target: TrKA (ELISA antigen, target Human-TrKA) (human) (UniProt P04629)
Sequence (P04629 33-423 limits assumed): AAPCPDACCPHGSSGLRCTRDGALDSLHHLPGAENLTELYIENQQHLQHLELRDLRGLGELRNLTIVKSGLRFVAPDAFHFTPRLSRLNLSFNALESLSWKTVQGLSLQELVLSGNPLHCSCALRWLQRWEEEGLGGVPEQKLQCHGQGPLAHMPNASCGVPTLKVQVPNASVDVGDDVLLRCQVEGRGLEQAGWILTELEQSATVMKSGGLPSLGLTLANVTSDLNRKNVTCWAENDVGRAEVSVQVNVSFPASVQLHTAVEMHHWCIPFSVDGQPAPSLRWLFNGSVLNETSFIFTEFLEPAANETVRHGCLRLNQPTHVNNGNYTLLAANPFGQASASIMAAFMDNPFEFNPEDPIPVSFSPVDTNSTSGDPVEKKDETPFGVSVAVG
Experiment: ELISA, antibody 0 to 20 µg/mL, plateau

OD450, 3:
B1
B2
B3
B4

Reference: patent US20230357411A1
